The stoichiometry N is the number of molecules, sites or subunits per partner or assembly. The term IC50 denotes the concentration needed to halve the response being measured.

The chains are these.
T1: human CaMKII-α hub (Homo sapiens, UniProt Q9UQM7)
T1 construct: human CaMKII-α hub consisted of residues 345–475 (UNIPROT id: Q9UQM7); 6-histidine tag with PreScission protease site (N, cleaved yes); made in house; host or cells: E. coli BL21
T1 sequence (Q9UQM7 345-475): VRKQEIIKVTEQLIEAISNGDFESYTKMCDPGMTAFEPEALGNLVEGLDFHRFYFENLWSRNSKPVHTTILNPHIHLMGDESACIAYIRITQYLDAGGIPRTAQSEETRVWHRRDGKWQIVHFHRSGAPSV

B1: Peptide B (human CaMKII-α 290-309, unphosphorylated, unlabeled) (peptide)
peptide: LKKFNARRKLKGAILTTMLA
notes: also called the unphosphorylated peptide; wild type peptide; source: synthetic peptide, gift of Leta Nutt (St. Jude Children's Research Hospital), HPLC purified
B2: human CaMKII-α hub, crystallization construct with uncleaved expression tag (domain or fragment)
chain: GSSHHHHHHSSGLEVLFQGPHMVRKQEIIKVTEQLIEAISNGDFESYTKMCDPGMTAFEPEALGNLVEGLDFHRFYFENLWSRNSKPVHTTILNPHIHLMGDESACIAYIRITQYLDAGGIPRTAQSEETRVWHRRDGKWQIVHFHRSGAPSV
notes: uncleaved N-terminal expression tag: hexahistidine followed by a PreScission protease cleavage site; written as a part because it docks on the hub; Ca2+/calmodulin-dependent protein kinase II alpha, human, hub domain, residues 345-475; The 22-residue tag was left uncleaved for crystallization; also called dodecameric human CaMKII-α hub; source: E. coli BL21, purified (Ni-NTA, Q-FF, Superose 6, …)
B3: Peptide D, unlabeled (human CaMKII-α 290-309 plus C-terminal cysteine, phosphorylated on Thr 306) (peptide)
peptide: LKKFNARRKLKGAILT[pT]MLAC
notes: human CaMKII-α, residues 290-309; added C-terminal cysteine; also called peptide phosphorylated on Thr 306; source: synthetic peptide, bought: Elim Biopharm, HPLC purified
B4: human CaMKII-α hub domain (domain or fragment, UniProt Q9UQM7 345-475, looked up)
chain: T1 sequence (Q9UQM7 345-475)
notes: Ca2+/calmodulin-dependent protein kinase II alpha, human, hub domain; residues 345-475 are stated for the crystallization construct; The limits are stated only for the crystallization construct; also called the hub; isolated hub; source: E. coli BL21, purified (Ni-NTA, Q-FF, Superose 6); not shown: His6, N-terminal, cleaved; copies: 12 or 14
B5: human CaMKII-α hub domain F397A (domain or fragment, UniProt Q9UQM7 345-475, looked up)
chain: T1 sequence (Q9UQM7 345-475) with F53A
notes: Ca2+/calmodulin-dependent protein kinase II alpha, human, hub domain; residues 345-475 are stated for the crystallization construct of the wild type; residue number according to PDB 1HKX; also called F397A mutant hub; mutant hub; source: E. coli BL21, purified; not shown: His6, N-terminal, cleaved
B6: Peptide C, unlabeled (human CaMKII-α 290-309 plus C-terminal cysteine, phosphorylated on Thr 305) (peptide)
peptide: LKKFNARRKLKGAIL[pT]TMLAC
notes: human CaMKII-α, residues 290-309; added C-terminal cysteine; also called peptide phosphorylated on Thr 305; source: synthetic peptide, bought: Elim Biopharm, HPLC purified

Substitutions are numbered along the chain they refer to. Names and notes keep the numbering of the source. Values joined by “and” are separate entries in the source; they are usually repeats but may differ in a detail not shown here. Equal values may be shown once. Square brackets hold non-standard residues; d marks the D form. Ends that are not written are not given here. pT = C[C@@H](OP(=O)(O)O)[C@H](N)C(=O)O

The target in data set [1] is T1, human CaMKII-α hub. Briefly: Fluorescence polarization competition assay with unlabeled peptides. It counts as binding. How it is done: For the competition experiments, 2 nM of various labeled peptides were bound to 30 μM of the hub, resulting in high fluorescence polarization. Upon titration with the corresponding unlabeled versions of the peptides, the labeled peptides were competed off, and the fluorescence polarization decreased to the baseline value (Figure 3C–E). The value of the inhibition constant, IC50, is ~100 μM for the unlabeled peptides, whether phosphorylated or not. […]
The fluorescence polarization binding experiments were initiated by adding 15 μL of 2 nM BODIPY labeled peptides (buffer: 25 mM Tris at pH 8.0) to 15 μL of different concentrations of the human CaMKII-α hub domain (ranging from 0–1000 μM in 25 mM Tris at pH 8.0, 150 mM KCl, 10% glycerol and 0.02% Tween). […] The fluorescence polarization was read from 20 μL of these reaction mixtures in opaque black 96-well plates using a Synergy H4 hybrid microplate reader with a 485/20 nm excitation filter, and a 528/20 nm emission filter. Error bars are calculated from the standard error of mean between replicates of experiments. […]
where, A is the observed fluorescence polarization (FP) value, Af is the FP value for free labeled ligand, A0 is the FP value in the absence of unlabeled ligand, KD is the dissociation constant, [P]tot is the total protein concentration, and [L]tot is the total concentration of the unlabeled ligand. […]
For orientation: In fluorescence polarisation assays a small probe gives low polarisation when free and higher when bound to something large.

The target of data set [2] is N. vectensis CaMKII-A hub domain (Nematostella vectensis). Briefly: crystal structure; N. vectensis CaMKII-A hub; 0.2 M potassium thiocyanate, 20% w/v PEG 3350, pH 7.0.
Data set [3] deals with N. vectensis CaMKII-B hub domain (Nematostella vectensis). Briefly: crystal structure; N. vectensis CaMKII-B hub; 2.5 M sodium chloride, 0.1 M acetate pH 4.2, 0.25 M lithium sulphate.
Data set [4] concerns the target T1, human CaMKII-α hub. Briefly: Fluorescence polarization, direct titration of hub to BODIPY-labeled peptide. The conditions noted are these: 2 nM Bodipy-FL-labeled peptide, hub 0-1000 μM, 25 mM Tris pH 8.0; non-saturable binding at high hub concentrations, value not relied on; read-out: KD derived from direct titration of the hub to the labeled peptide. The text has this: To analyze the mechanism of subunit exchange, we focused initially on potential interactions between the CaM-binding element and the hub. We had shown previously that mutation of the CaM-binding element blocks subunit exchange, and that phosphorylation of Thr 305 and Thr 306 in the CaM-binding element potentiates exchange ([Stratton et al., 2014]). We prepared both phosphorylated and unphosphorylated forms of peptides spanning the CaM-binding element of CaMKII-α (see Materials and methods). The peptides were labeled with a fluorophore (Bodipy-FL maleimide) at the C-terminal end, and binding was monitored by changes in fluorescence polarization (Figure 3A). To a fixed volume of labeled peptide (2 nM), increasing concentrations of the hub was added, and the change in fluorescence polarization was monitored (Figure 3B). […]
The fluorescence polarization binding experiments were initiated by adding 15 μL of 2 nM BODIPY labeled peptides (buffer: 25 mM Tris at pH 8.0) to 15 μL of different concentrations of the human CaMKII-α hub domain (ranging from 0–1000 μM in 25 mM Tris at pH 8.0, 150 mM KCl, 10% glycerol and 0.02% Tween). […] The fluorescence polarization was read from 20 μL of these reaction mixtures in opaque black 96-well plates using a Synergy H4 hybrid microplate reader with a 485/20 nm excitation filter, and a 528/20 nm emission filter. […]

Data set [5] deals with S. rosetta CaMKII holoenzyme, full length, wild type (Salpingoeca rosetta). Briefly: native MS; full-length S. rosetta CaMKII at 3 μM; 1 M ammonium acetate pH 7.2.
The target is the same in data set [6]. Briefly: native MS; full-length S. rosetta CaMKII at 12 μM; 1 M ammonium acetate pH 7.2.
For data set [7] the target is unchanged. Briefly: native MS; full-length S. rosetta CaMKII at 48 μM; 1 M ammonium acetate pH 7.2.
Data set [8] has the same target. Briefly: SEC; analytical gel filtration, Superose 6 10/300, 25 mM Tris pH 8.0, 150 mM KCl, 10% glycerol, 1 mM TCEP or 2 mM DTT; injection at 700 nM subunits; tryptophan fluorescence. In general terms: SEC sorts molecules by how far they enter the pores of the column.
For data set [9], the target named is S. rosetta CaMKII hub domain (Salpingoeca rosetta). Briefly: SEC-MALS; S. rosetta hub at ∼3.2 mg/ml (~200 μM) on Superdex 200 10/300; 25 mM Tris pH 8.0, 150 mM KCl, 1 mM TCEP, 10% glycerol; 25°C.
Data set [10] has as its target hub-△kinase (hub, linker and autoinhibitory segment of human CaMKII-α, without the kinase domain) (human). Briefly: SEC; analytical gel filtration, Superose 6 10/300, 25 mM Tris pH 8.0, 150 mM KCl, 10% glycerol, 1 mM TCEP or 2 mM DTT; injection at 700 nM subunits; tryptophan fluorescence.
For data set [11], the target named is B4. Briefly: fluorescence polarisation; competition: 2 nM BODIPY labelled peptide bound to 30 μM hub, unlabeled peptide 0-500 μM added; KD from a non-linear fit assuming one peptide site per subunit and equal KD of labelled and unlabeled peptide. The following applies: both partners purified.
Data set [12] deals with the molecule itself. Briefly: crystal structure; human CaMKII-α hub with uncleaved tag; 35% (v/v) MPD, 0.1 M HEPES pH 7.3.
Data set [13] deals with the molecule itself. Briefly: native MS; human hub; nanoelectrospray Q-TOF, 1 M ammonium acetate pH 7.2; CID MS/MS at 30 V collision energy.
Data set [14] concerns the molecule itself. Briefly: native MS; F397A hub: 200 μM in 1 M ammonium acetate; 2 μM in 25 mM Tris, 1 mM TCEP, pH 8; 250 mM ammonium acetate, 25 mM Tris, 1 mM TCEP, pH 8; oligomer identity confirmed by CID.
Data set [15] deals with the molecule itself. Briefly: SEC; analytical gel filtration, Superose 6 10/300; elevated injection concentration of 3–5 μM; reinjection of the dodecamer/tetradecamer peak of the holoenzyme; pre-incubation with Mg2+-ATP for the holoenzyme.

As for `CC[C@H](C)[C@H](NC(=O)[C@H](C)NC(=O)CNC(=O)[C@H](CCCCN)NC(=O)[C@H](CC(C)C)NC(=O)[C@H](CCCCN)NC(=O)[C@H](CCCNC(=N)N)NC(=O)[C@H](CCCNC(=N)N)NC(=O)[C@H](C)NC(=O)[C@H](CC(N)=O)NC(=O)[C@H](Cc1ccccc1)NC(=O)[C@H](CCCCN)NC(=O)[C@H](CCCCN)NC(=O)[C@@H](N)CC(C)C)C(=O)N[C@@H](CC(C)C)C(=O)N[C@H](C(=O)N[C@H](C(=O)N[C@@H](CCSC)C(=O)N[C@@H](CC(C)C)C(=O)N[C@@H](C)C(=O)N[C@@H](CS)C(=O)O)[C@@H](C)OP(=O)(O)O)[C@@H](C)O` [peptide D], the Kd in [1] (2 nM labeled peptide bound to 30 μM hub, competed with unlabeled peptide 0-500 μM, 25 mM Tris pH 8.0, non-linear least squares fit, one peptide-binding site per subunit, labeled peptide A used for peptide B, read-out: KD from competition experiments) was 52 µM. For “LKEFNAERKLEGAILTTMLA [Peptide G, triple mutant of the residues 290-309 peptide, three positively charged residues replaced by Glu]”, in data set [1] (hub bound to labeled peptide A, competition with unlabeled mutant peptides (Figure 3F)), the “Ability to compete the binding of the labeled peptide” value is on record as “fails to compete”. In turn, “N. vectensis CaMKII-A hub domain (domain or fragment)” displayed a stoichiometry N in [2] of 14. Turning to “N. vectensis CaMKII-B hub domain (domain or fragment)”, the stoichiometry N in data set [3] worked out at 14.

Turning to RRKLKGAILTTMLATRC [peptide A], the Kd in data set [4] was approximately 100 µM. Take “S. rosetta CaMKII holoenzyme, full length, wild type”: the stoichiometry N in data set [5] was 2 and 4; in data set [6] it was 4 and 6; in data set [7], 4 and 6 and 8; in data set [8], 2.

In data set [9], “S. rosetta CaMKII hub domain (domain or fragment)” came in with a stoichiometry N of 4. In data set [10], “hub-△kinase (hub, linker and autoinhibitory segment of human CaMKII-α, without the kinase domain) (domain or fragment)” registered a percent of the sample in the dimer peak of 35%, a percent of the sample in the dodecamer/tetradecamer peak of 65% and a stoichiometry N of 2.

As to B1, in data set [11], the IC50 is approximately 100 µM and the Kd is approximately 90 µM. For B2, in data set [12], the “stoichiometry N” value came out at 12. Take B3: in data set [11], the IC50 is approximately 100 µM and the Kd is approximately 50 µM. In the case of B4, the “stoichiometry N” value in data set [13] is 12 and 14.

Turning to B5, the “stoichiometry N” value in [14] turned out to be 14; in data set [15] it was 2. In the case of B6, in data set [11], the IC50 was approximately 100 µM and the Kd was approximately 60 µM.

For the origin of these results see PMC4859805, “Molecular mechanism of activation-triggered subunit exchange in Ca^2+/calmodulin-dependent protein kinase II” (eLife, 2016).
